# Source: patent US20240238445A1, “INHIBITORS AND USES THEREOF” (NEURACLE SCIENCE CO., LTD., priority 2021, published 2024)
# B1: LRRC4B (230-713): FLAG-tagged LRRC4B deletion construct, amino acids 230-713 of SEQ ID NO: 2 (protein)
# chain: RLEELELSGNRLDLIRPGSFQGLTSLRKLWLMHAQVATIERNAFDDLKSLEELNLSHNNLMSLPHDLFTPLHRLERVHLNHNPWHCNCDVLWLSWWLKETVPSNTTCCARCHAPAGLKGRYIGELDQSHFTCYAPVIVEPPTDLNVTEGMAAELKCRTGTSMTSVNWLTPNGTLMTHGSYRVRISVLHDGTLNFTNVTVQDTGQYTCMVTNSAGNTTASATLNVSAVDPVAAGGTGSGGGGPGGSGGVGGGSGGYTYFTTVTVETLETQPGEEALQPRGTEKEPPGPTTDGVWGGGRPGDAAGPASSSTTAPAPRSSRPTEKAFTVPITDVTENALKDLDDVMKTTKIIIGCFVAITFMAAVMLVAFYKLRKQHQLHKHHGPTRTVEIINVEDELPAASAVSVAAAAAVASGGGVGGDSHLALPALERDHLNHHHYVAAAFKAHYSSNPSGGGCGGKGPPGLNSIHEPLLFKSGSKENVQETQI
# modifications: FLAG tag
# B2: LRRC4B (364-576): FLAG-tagged LRRC4B deletion construct, amino acids 364-576 of SEQ ID NO: 2 (protein)
# chain: PVIVEPPTDLNVTEGMAAELKCRTGTSMTSVNWLTPNGTLMTHGSYRVRISVLHDGTLNFTNVTVQDTGQYTCMVTNSAGNTTASATLNVSAVDPVAAGGTGSGGGGPGGSGGVGGGSGGYTYFTTVTVETLETQPGEEALQPRGTEKEPPGPTTDGVWGGGRPGDAAGPASSSTTAPAPRSSRPTEKAFTVPITDVTENALKDLDDVMKTTK
# modifications: FLAG tag
# B3: LRRC4C peptide fragment: LRRC4C protein fragment, amino acids 354-527 of SEQ ID NO: 3 (protein)
# chain: VIVEPPADLNVTEGMAAELKCRASTSLTSVSWITPNGTVMTHGAYKVRIAVLSDGTLNFTNVTVQDTGMYTCMVSNSVGNTTASATLNVTAATTTPFSYFSTVTVETMEPSQDEARTTDNNVGPTPVVDWETTNVTTSLTPQSTRSTEKTFTIPVTDINSGIPGIDEVMKTTK
# B4: LRRC4B (36-713): FLAG-tagged LRRC4B deletion construct, amino acids 36-713 of SEQ ID NO: 2 (protein)
# chain: AGGGGVAVTSAAGGGSPPATSCPVACSCSNQASRVICTRRDLAEVPASIPVNTRYLNLQENGIQVIRTDTFKHLRHLEILQLSKNLVRKIEVGAFNGLPSLNTLELFDNRLTTVPTQAFEYLSKLRELWLRNNPIESIPSYAFNRVPSLRRLDLGELKRLEYISEAAFEGLVNLRYLNLGMCNLKDIPNLTALVRLEELELSGNRLDLIRPGSFQGLTSLRKLWLMHAQVATIERNAFDDLKSLEELNLSHNNLMSLPHDLFTPLHRLERVHLNHNPWHCNCDVLWLSWWLKETVPSNTTCCARCHAPAGLKGRYIGELDQSHFTCYAPVIVEPPTDLNVTEGMAAELKCRTGTSMTSVNWLTPNGTLMTHGSYRVRISVLHDGTLNFTNVTVQDTGQYTCMVTNSAGNTTASATLNVSAVDPVAAGGTGSGGGGPGGSGGVGGGSGGYTYFTTVTVETLETQPGEEALQPRGTEKEPPGPTTDGVWGGGRPGDAAGPASSSTTAPAPRSSRPTEKAFTVPITDVTENALKDLDDVMKTTKIIIGCFVAITFMAAVMLVAFYKLRKQHQLHKHHGPTRTVEIINVEDELPAASAVSVAAAAAVASGGGVGGDSHLALPALERDHLNHHHYVAAAFKAHYSSNPSGGGCGGKGPPGLNSIHEPLLFKSGSKENVQETQI
# modifications: FLAG tag
# B5: LRRC4B (364-713): FLAG-tagged LRRC4B deletion construct, amino acids 364-713 of SEQ ID NO: 2 (protein)
# chain: PVIVEPPTDLNVTEGMAAELKCRTGTSMTSVNWLTPNGTLMTHGSYRVRISVLHDGTLNFTNVTVQDTGQYTCMVTNSAGNTTASATLNVSAVDPVAAGGTGSGGGGPGGSGGVGGGSGGYTYFTTVTVETLETQPGEEALQPRGTEKEPPGPTTDGVWGGGRPGDAAGPASSSTTAPAPRSSRPTEKAFTVPITDVTENALKDLDDVMKTTKIIIGCFVAITFMAAVMLVAFYKLRKQHQLHKHHGPTRTVEIINVEDELPAASAVSVAAAAAVASGGGVGGDSHLALPALERDHLNHHHYVAAAFKAHYSSNPSGGGCGGKGPPGLNSIHEPLLFKSGSKENVQETQI
# modifications: FLAG tag
# B6: LRRC4B (453-713): FLAG-tagged LRRC4B deletion construct, amino acids 453-713 of SEQ ID NO: 2 (protein)
# chain: VSAVDPVAAGGTGSGGGGPGGSGGVGGGSGGYTYFTTVTVETLETQPGEEALQPRGTEKEPPGPTTDGVWGGGRPGDAAGPASSSTTAPAPRSSRPTEKAFTVPITDVTENALKDLDDVMKTTKIIIGCFVAITFMAAVMLVAFYKLRKQHQLHKHHGPTRTVEIINVEDELPAASAVSVAAAAAVASGGGVGGDSHLALPALERDHLNHHHYVAAAFKAHYSSNPSGGGCGGKGPPGLNSIHEPLLFKSGSKENVQETQI
# modifications: FLAG tag
# B7: LRRC4B (157-713): FLAG-tagged LRRC4B deletion construct, amino acids 157-713 of SEQ ID NO: 2 (protein)
# chain: LSKLRELWLRNNPIESIPSYAFNRVPSLRRLDLGELKRLEYISEAAFEGLVNLRYLNLGMCNLKDIPNLTALVRLEELELSGNRLDLIRPGSFQGLTSLRKLWLMHAQVATIERNAFDDLKSLEELNLSHNNLMSLPHDLFTPLHRLERVHLNHNPWHCNCDVLWLSWWLKETVPSNTTCCARCHAPAGLKGRYIGELDQSHFTCYAPVIVEPPTDLNVTEGMAAELKCRTGTSMTSVNWLTPNGTLMTHGSYRVRISVLHDGTLNFTNVTVQDTGQYTCMVTNSAGNTTASATLNVSAVDPVAAGGTGSGGGGPGGSGGVGGGSGGYTYFTTVTVETLETQPGEEALQPRGTEKEPPGPTTDGVWGGGRPGDAAGPASSSTTAPAPRSSRPTEKAFTVPITDVTENALKDLDDVMKTTKIIIGCFVAITFMAAVMLVAFYKLRKQHQLHKHHGPTRTVEIINVEDELPAASAVSVAAAAAVASGGGVGGDSHLALPALERDHLNHHHYVAAAFKAHYSSNPSGGGCGGKGPPGLNSIHEPLLFKSGSKENVQETQI
# modifications: FLAG tag
# B8: LRRC4 peptide fragment: LRRC4 protein fragment, amino acids 353-527 of SEQ ID NO: 1 (protein)
# chain: PFIMDAPRDLNISEGRMAELKCRTPPMSSVKWLLPNGTVLSHASRHPRISVLNDGTLNFSHVLLSDTGVYTCMVTNVAGNSNASAYLNVSTAELNTSNYSFFTTVTVETTEISPEDTTRKYKPVPTTSTGYQPAYTTSTTVLIQTTRVPKQVAVPATDTTDKMQTSLDEVMKTTK
# Target: T1, FAM19A5 protein (Homo sapiens, UniProt Q7Z5A7)
# Assay: Co-immunoprecipitation of FLAG-tagged LRRC4 family deletion constructs/fragments with recombinant FAM19A5 in HEK293 cells
# Format: binding
# Details: HEK293 cells expressing FLAG-tagged construct, recombinant FAM19A5 1 μM 30 minutes; IP anti-FLAG, blot anti-FAM19A5 (3-2)
# Experimental: To understand the interaction between FAM19A5 and members of the LRRC4 protein family, HEK293 cells were modified to express a FLAG-tagged member of the LRRC4 protein family, i.e., LRRC4C protein, LRRC4 protein, or LRRC4B protein. Then, the HEK293 cells or primary cortical neurons were treated with recombinant FAM19A5 protein (1 μM) for 30 minutes, and the binding between FAM19A5 protein and the different members of the LRRC4 protein family was assessed using both co-immunoprecipitation and immunofluorescence assays.
# For the co-immunoprecipitation assay, cell lysates from the different FAM19A5-treated HEK293 cells were collected and immunoprecipitated with an anti-FLAG antibody, anti-FAM19A5 (1-65) antibody, or a human IgG antibody (control). Immunoprecipitated proteins were immunoblotted with anti-FLAG and anti-FAM19A5 (3-2) antibodies. For the immunofluorescence assay, the HEK293 cells treated with the recombinant FAM19A5 protein were immunostained with anti-FAM19A5 (3-2) (to detect FAM19A5 protein expression) and anti-FLAG antibodies (to detect member of the LRRC4 protein family). The primary cortical neurons treated with the recombinant FAM19A5 protein were immunostained with anti-FAM19A5 (3-2) and anti-LRRC4B antibodies. The nuclei were stained with Hoechst33342 (blue).
# To determine the specific motif or domain of the LRRC4B protein that is responsible for the binding to a FAM19A5 protein, various FLAG-tagged LRRC4B deletion constructs were generated (see Table 6 below). HEK293 cells were transfected with the different deletion constructs and then treated with recombinant FAM19A5 protein as described in Example 1. Then, the cell lysates from the different HEK293 cells were immunoprecipitated with the anti-FLAG antibody. The immunoprecipitated proteins were immunoblotted with anti-FLAG and anti-FAM19A5 (3-2) antibodies.
# As described in Example 2, all members of the LRRC4 protein family were capable of binding to FAM19A5 protein to varying degrees. Therefore, to compare the bindings domains, the amino acid sequences of the LRRC4B, LRRC4, and LRRC4C proteins were aligned. […] Therefore, to assess whether the corresponding positions of LRRC4 and LRRC4C were important in the binding of these proteins to FAM19A5 protein, cDNAs encoding either (i) LRRC4C protein fragment (amino acids 354-527 of SEQ ID NO: 3; SEQ ID NO: 66) or (ii) LRRC4 protein fragment (amino acids 353-527 of SEQ ID NO: 1; SEQ ID NO: 67) were constructed (see Table 7). HEK293 cells were transfected to express either of the protein fragments and then treated with recombinant FAM19A5 protein as described in Example 1. Then, the cell lysates from the different HEK293 cells were immunoprecipitated with the anti-FLAG antibody. The immunoprecipitated proteins were immunoblotted with anti-FLAG and anti-FAM19A5 (3-2) antibodies.
row,Molecule,binding to FAM19A5 protein (co-immunoprecipitation)
1,B1,able to bind to the FAM19A5 protein with varying degree
2,B2,able to bind to the FAM19A5 protein with varying degree
3,B3,able to bind to the FAM19A5 protein
4,B4,able to bind to the FAM19A5 protein with varying degree
5,B5,able to bind to the FAM19A5 protein with varying degree
6,B6,able to bind to the FAM19A5 protein with varying degree
7,B7,able to bind to the FAM19A5 protein with varying degree
8,B8,able to bind to the FAM19A5 protein

# Target: T1, FAM19A5 protein
# Assay: competitive inhibition ELISA; competitor: coated LRRC4B(36-576)-hFc
# Details: not given
row,Inhibition rate (%),Molecule
1,73,GYTYFTTVTVETAETQPGEE [FB-20[A12]]
2,51.4,GYTYFTTVTVETLATQPGEE [FB-20[A13]]

# Target: T1, FAM19A5 protein
# Assay: competitive inhibition ELISA; competitor: coated LRRC4B(453-576)-hFc
# Details: not given
row,Inhibition rate (%),Molecule
1,56.2,GYTYFTTVTVETAETQPGEE [FB-20[A12]]
2,27.2,GYTYFTTVTVETLATQPGEE [FB-20[A13]]

# Target: T1, FAM19A5 protein
# Assay: competitive inhibition ELISA, 20 nM peptide, rFAM19A5 5 ng/mL; competitor: coated LRRC4B(36-576)-hFc
# Details: not given
row,Inhibition rate (%),Molecule
1,62,KNYTYFTTVTVENKETQ [FB-m10dC]
2,65,KNYTYFTTVTVETNKETQ [FB-m11dC]

# Target: T1, FAM19A5 protein
# Assay: competitive inhibition ELISA, 20 nM peptide, rFAM19A5 1 ng/mL; competitor: coated LRRC4B(453-576)-hFc
# Details: not given
row,Inhibition rate (%),Molecule
1,21.9,KNYTYFTTVTVENKETQ [FB-m10dC]
2,30.4,KNYTYFTTVTVETNKETQ [FB-m11dC]
